In patent publication US20210388110A1 one finds SuRe binding (RU) data, which are given here for 22 molecules.

In the assay the target is Mab Select SuRe Ligand. Description: SPR (Biacore T200), SuRe ligand on CM5 chip, antibody 5 ug/mL. In general terms: In SPR one partner is held on a chip, and binding of the other changes the refractive index at the surface.

Where a chain is given by its changes, count along the chain named. “And” between values parts separate entries of the source, which are not always exact repeats. Equal entries are not always repeated.

B1: TR01H093-E2702GsKsc/L0011-k0 (antibody, human IgG4 S228P, kappa, N297A, V domains shown)
VH: QVQLVESGGGLVQPGRSLRLSCAASGFTFSNAWMHWVRQAPGKGLEWVAQIKDKSQNYATYYAESVQGRFTISRDDSKNSLYLQMNSLKTEDTAVYYCRYVHYAAGYGVDAWGQGTTVTVSS
VL: DIVMTQSPLSLPVTPGEPASISCRSSQPLVHSNRNTYLHWYQQKPGQAPRLLIYKVSNRFSGVPDRFSGSGSGTDFTLKISRVEAEDVGVYYCGQGTQVPYTFGQGTKLEIKR
As to B1, the SuRe binding (RU) came to 2460 RU.

B2: TR01H112-E2702GsKsc/L0011-k0 (antibody, human IgG4 S228P, kappa, N297A, V domains shown)
VH: B1 VH with L11V, R16G, T60Q, Q67K, D75A, L81I, A111I
VL: B1 VL
As for B2, the SuRe binding (RU) came to 8.8 RU.

B3: TR01H098-E2702GsKsc/L0011-k0 (antibody, human IgG4 S228P, kappa, N297A, V domains shown)
VH: B1 VH with T60P, Q67K
VL: B1 VL
With B3, the SuRe binding (RU) is 1.6 RU.

B4: TR01H109-E2702GsKsc/L0011-k0 (antibody, human IgG4 S228P, kappa, N297A, V domains shown)
VH: B1 VH with Y62V, Q67K
VL: B1 VL
In the case of B4, the SuRe binding (RU) stood at 2.2 RU.

B5: TR01H107-E2702GsKsc/L0011-k0 (antibody, human IgG4 S228P, kappa, N297A, V domains shown)
VH: B1 VH with Y62Q, Q67K
VL: B1 VL
On to B5, for which the SuRe binding (RU) was 1.4 RU.

B6: TR01H114-E2702GsKsc/L0011-k0 (antibody, human IgG4 S228P, kappa, N297A, V domains shown)
VH: B1 VH with L11V, R16G, T60S, Q67K, D75A, L81I, A111I
VL: B1 VL
Molecule B6 showed a SuRe binding (RU) of 1490 RU.

B7: TR01H104-E2702GsKsc/L0011-k0 (antibody, human IgG4 S228P, kappa, N297A, V domains shown)
VH: B1 VH with Y62I, Q67K
VL: B1 VL
Take B7: the SuRe binding (RU) was 1 RU.

B8: TR01H113-E2702GsKsc/L0011-k0 (antibody, human IgG4 S228P, kappa, N297A, V domains shown)
VH: B1 VH with L11V, R16G, Y62V, Q67K, D75A, L81I, A111I
VL: B1 VL
The molecule B8 showed a SuRe binding (RU) of 7 RU.

B9: TR01H092-E2702GsKsc/L0011-k0 (antibody, human IgG4 S228P, kappa, N297A, V domains shown)
VH: B1 VH with Q67A
VL: B1 VL
In turn, B9 returned a SuRe binding (RU) of 1160 RU.

B10: TR01H099-E2702GsKsc/L0011-k0 (antibody, human IgG4 S228P, kappa, N297A, V domains shown)
VH: B1 VH with T60Q, Q67K
VL: B1 VL
Molecule B10 returned a SuRe binding (RU) of 0.6 RU.

B11: TR01H102-E2702GsKsc/L0011-k0 (antibody, human IgG4 S228P, kappa, N297A, V domains shown)
VH: B1 VH with Y62F, Q67K
VL: B1 VL
On to B11, for which the SuRe binding (RU) amounted to 0.5 RU.

B12: TR01H100-E2702GsKsc/L0011-k0 (antibody, human IgG4 S228P, kappa, N297A, V domains shown)
VH: B1 VH with T60S, Q67K
VL: B1 VL
Molecule B12 yielded a SuRe binding (RU) of 383 RU.

B13: TR01H103-E2702GsKsc/L0011-k0 (antibody, human IgG4 S228P, kappa, N297A, V domains shown)
VH: B1 VH with Y62G, Q67K
VL: B1 VL
Take B13: the SuRe binding (RU) was 1.4 RU.

B14: TR01H094-E2702GsKsc/L0011-k0 (antibody, human IgG4 S228P, kappa, N297A, V domains shown)
VH: B1 VH with Q67S
VL: B1 VL
Regarding B14, the SuRe binding (RU) stood at 2350 RU.

B15: TR01H105-E2702GsKsc/L0011-k0 (antibody, human IgG4 S228P, kappa, N297A, V domains shown)
VH: B1 VH with Y62L, Q67K
VL: B1 VL
Regarding B15, the SuRe binding (RU) turned out to be 0.8 RU.

B16: TR01H096-E2702GsKsc/L0011-k0 (antibody, human IgG4 S228P, kappa, N297A, V domains shown)
VH: B1 VH with T60G, Q67K
VL: B1 VL
Molecule B16 returned a SuRe binding (RU) of 2.7 RU.

B17: TR01H084-E2702GsKsc/L0011-k0 (antibody, human IgG4 S228P, kappa, N297A)
heavy: QVQLVESGGGVVQPGGSLRLSCAASGFTFSNAWMHWVRQAPGKGLEWVAQIKDKSQNYATYYAESVKGRFTISRADSKNSIYLQMNSLKTEDTAVYYCRYVHYAAGYGVDIWGQGTTVTVSSASTKGPSVFPLAPCSRSTSESTAALGCLVKDYFPEPVTVSWNSGALTSGVHTFPAVLQSSGLYSLSSVVTVPSSSLGTKTYTCNVDHKPSNTKVDKRVESKYGPPCPPCPAPEFRGGPKVFLFPPKPKDTLMISRTPEVTCVVVDVSQEDPEVQFNWYVDGVEVHNAKTKPREEQFASTYRVVSVLTVLHQDWLNGKEYKCKVSNKGLPSSIEKTISKAKGQPREPQVYTLPPSQKEMTKNQVSLTCLVKGFYPSDIAVEWESNGQPENNYKTTPPVLDSDGSFFLYSKLTVDKSRWQEGNVFSCSVMHEALHNRYTQKSLSLSP
light: DIVMTQSPLSLPVTPGEPASISCRSSQPLVHSNRNTYLHWYQQKPGQAPRLLIYKVSNRFSGVPDRFSGSGSGTDFTLKISRVEAEDVGVYYCGQGTQVPYTFGQGTKLEIKRTVAAPSVFIFPPSDEQLKSGTASVVCLLNNFYPREAKVQWKVDNALQSGNSQESVTEQDSKDSTYSLSSTLTLSKADYEKHKVYACEVTHQGLSSPVTKSFNRGEC
With B17, the SuRe binding (RU) worked out at 5070 RU.

B18: TR01H091-E2702GsKsc/L0011-k0 (antibody, human IgG4 S228P, kappa, N297A)
heavy: B17 heavy with V11L, G16R, R19K, A75D, I81L, I111A
light: B17 light
For the molecule B18, the SuRe binding (RU) is 27.5 RU and 15 RU.

B19: TR01H110-E2702GsKsc/L0011-k0 (antibody, human IgG4 S228P, kappa, N297A)
heavy: B17 heavy with G16R, R19K, A75D, I81L, I111A
light: B17 light
In the case of B19, the SuRe binding (RU) is 29.5 RU.

B20: TR01H082-E2702GsKsc/L0011-k0 (antibody, human IgG4 S228P, kappa, N297A)
heavy: B17 heavy with V11L, G16R, A75D, I81L, I111A
light: B17 light
As to B20, the SuRe binding (RU) turned out to be 4470 RU.

B21: TR01H111-E2702GsKsc/L0011-k0 (antibody, human IgG4 S228P, kappa, N297A)
heavy: B17 heavy with R19K
light: B17 light
B21: the SuRe binding (RU) came out at 50.7 RU.

B22: TR01H090-E2702GsKsc/L0011-k0 (antibody, human IgG4 S228P, kappa, N297A)
heavy: B17 heavy with V11L, A75D, I81L, I111A
light: B17 light
Turning to B22, the SuRe binding (RU) amounted to 3610 RU.
